Experimental findings from paper PMC4358337, “How lamina-associated polypeptide 1 (LAP1) activates Torsin” (eLife, 2014) are described below.

Conditions in all cases: both partners purified
Assay [1] addresses T1, luminal domain of human LAP1 (aa356-583) (human, UniProt Q5JTV8).
T1 construct: luminal domain of human lamina-associated polypeptide 1 (LAP1), aa356-583; Tag removed with human rhinovirus 3C protease; disulfide bond C424-C582 seen in the structure; also called LAP1(356-583); Lamina-associated polypeptide 1; not shown: 6xHis-7xArg, N-terminal, cleaved
The experiment in a line: crystal structure; LAP1-VHH-BS1 complex formed with twofold molar excess of VHH-BS1, SEC purified; crystals in 20% PEG 3350, 100 mM Bis-Tris pH 5.5, 200 mM ammonium sulfate, 18°C; 1.6 Å.

The target of assay [2] is T2, luminal domain of human LAP1 (aa356-583), untagged, co-expressed with TorsinA (human, UniProt Q5JTV8).
T2 construct: luminal domain of human lamina-associated polypeptide 1 (LAP1), aa356-583, untagged; From a second, kanamycin resistant modified pETDuet-1 vector; also called LAP1(356-583)
T2 sequence (Q5JTV8 356-583): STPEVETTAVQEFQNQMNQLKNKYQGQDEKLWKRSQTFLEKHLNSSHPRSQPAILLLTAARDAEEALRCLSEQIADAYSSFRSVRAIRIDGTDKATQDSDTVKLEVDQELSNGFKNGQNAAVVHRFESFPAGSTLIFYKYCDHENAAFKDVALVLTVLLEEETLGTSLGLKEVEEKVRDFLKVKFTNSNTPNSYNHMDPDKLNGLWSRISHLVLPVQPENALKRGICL
Description: in vitro precipitation assay (competition); 100 pmol preformed TorsinA(E171Q):LAP1 complex with 200 pmol VHH, 4°C, 10 mM HEPES/NaOH pH 8.0, 150 mM NaCl, 10 mM MgCl2, 0.25 mM ATP; soluble and insoluble protein separated by centrifugation, SDS-PAGE.

For assay [3], the target named is T3, human TorsinA(E171Q) (aa51-322) (human, UniProt O14656 51-322, E171Q).
T3 construct: human TorsinA, aa51-322 as printed; Captured by its tag on nickel resin; the nickel eluate was used directly for electron microscopy; Whether the tag was removed before the analytical gel filtration and the precipitation assay is not clearly told; not shown: 6xHis-7xArg, N-terminal, kept
T3 sequence (looked up): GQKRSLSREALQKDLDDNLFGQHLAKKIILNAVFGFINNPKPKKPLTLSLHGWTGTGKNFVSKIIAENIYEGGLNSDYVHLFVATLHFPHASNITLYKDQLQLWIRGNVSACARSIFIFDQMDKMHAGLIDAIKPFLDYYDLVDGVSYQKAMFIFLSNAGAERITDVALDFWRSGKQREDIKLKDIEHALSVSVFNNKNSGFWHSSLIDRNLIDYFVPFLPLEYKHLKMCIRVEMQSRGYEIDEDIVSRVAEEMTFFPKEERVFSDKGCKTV
The experiment in a line: SEC; analytical gel filtration of the co-purified complexes, Superdex 200 10/300, 10 mM HEPES/NaOH pH 8.0, 150 mM NaCl, 10 mM MgCl2, 0.5 mM ATP; peak fractions by SDS-PAGE.

As usually defined, the stoichiometry N is a count of units in the complex or per binding partner.

T1 sequence (Q5JTV8 356-583): as the sequence (Q5JTV8 356-583) above

B1: VHH-BS1 (VHH)
VHH: QVQLVESGGGLVQAGGSLRLSCAASGRTLSSYAVGWFRQAPGLEREFVATISRSGGSTHYADSVKGRFTISRDNAKNTVYLQMNSLKPEDTAVYYCAATFTPDGSWYYTRGSSYDYWGQGTQVTVSS
notes: alpaca VHH selected by phage display against LAP1; Raised by immunising an alpaca with recombinant LAP1; expressed from pET-28b(+); also called camelid single domain (VHH) antibody fragment against LAP1
B1: the binding result in assay [1] and in assay [2] was “binds” each time.

B2: luminal domain of human LAP1 (aa356-583), untagged, co-expressed with TorsinA (domain or fragment)
chain: not shown
notes: luminal domain of human lamina-associated polypeptide 1 (LAP1), aa356-583, untagged; From a second, kanamycin resistant modified pETDuet-1 vector; also called LAP1(356-583)
For the molecule B2, the “stoichiometry N” value in assay [3] turned out to be 1.

B3: luminal domain of human LULL1 (aa233-470), untagged, co-expressed with TorsinA (domain or fragment)
chain: not shown
notes: luminal domain of human LULL1, aa233-470, untagged; The results once print LULL1(322-570); the methods print aa233-470 throughout; also called LULL1(233-470); Luminal domain-Like LAP1
Turning to B3, the “stoichiometry N” value in assay [3] came to 1.
